Results published in patent US20210253725A1 (BIONTECH, published 2021).

T1: CD27 expressed on the cell surface of HT1080_CD27 cells (human, UniProt P26842 20-260)
T1 sequence (looked up): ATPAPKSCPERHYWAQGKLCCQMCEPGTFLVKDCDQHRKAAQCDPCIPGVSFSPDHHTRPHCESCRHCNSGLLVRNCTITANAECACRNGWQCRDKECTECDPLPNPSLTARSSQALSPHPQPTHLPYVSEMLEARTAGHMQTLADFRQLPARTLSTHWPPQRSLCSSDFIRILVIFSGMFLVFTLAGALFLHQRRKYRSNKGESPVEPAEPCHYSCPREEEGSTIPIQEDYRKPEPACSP

T2: CD27 protein (His-tagged, Sino Biological Inc. 10039-H08B1) (human, UniProt P26842 20-192)
T2 construct: bought protein coated on ELISA plates; also called TNFRSF7; not shown: His tag
T2 sequence (looked up): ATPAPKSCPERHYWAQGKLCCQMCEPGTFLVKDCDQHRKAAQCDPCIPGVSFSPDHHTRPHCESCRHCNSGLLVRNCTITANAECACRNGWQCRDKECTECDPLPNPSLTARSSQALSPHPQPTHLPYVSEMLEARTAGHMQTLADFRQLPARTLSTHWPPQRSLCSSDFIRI

T3: CD134 expressed on the cell surface of HT1080_OX40 cells (human, UniProt P43489 29-277)
T3 sequence (looked up): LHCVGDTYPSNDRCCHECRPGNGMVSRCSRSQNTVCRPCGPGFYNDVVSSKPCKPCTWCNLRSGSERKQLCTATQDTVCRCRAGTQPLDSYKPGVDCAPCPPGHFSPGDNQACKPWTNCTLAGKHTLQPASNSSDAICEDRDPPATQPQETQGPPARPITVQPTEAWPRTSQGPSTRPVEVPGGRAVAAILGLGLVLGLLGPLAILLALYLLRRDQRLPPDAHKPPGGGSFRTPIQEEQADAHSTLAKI

T4: CD134 protein (His-tagged, Sino Biological Inc. 10481-H08H) (human, UniProt P43489 29-216)
T4 construct: bought protein coated on ELISA plates; also called OX40; TNFRSF4; not shown: His tag
T4 sequence (looked up): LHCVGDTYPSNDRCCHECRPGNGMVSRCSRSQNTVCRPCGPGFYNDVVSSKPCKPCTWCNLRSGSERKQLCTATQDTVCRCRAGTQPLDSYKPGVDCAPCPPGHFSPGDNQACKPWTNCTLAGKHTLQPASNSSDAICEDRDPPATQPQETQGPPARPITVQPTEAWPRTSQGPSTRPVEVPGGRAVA


Key:
[1] = molecular target: T1, CD27 expressed on the cell surface of …; test: cell-based or functional assay
[2] = molecular target: T1, CD27 expressed on the cell surface of …; test: cell-based or functional assay; remark: listed apart in the source
[3] = molecular target: T2, CD27 protein (His-tagged, Sino …); test: ELISA, coated His-tagged CD27; also: test concentration or dose not given here
[4] = molecular target: T1, CD27 expressed on the cell surface of …; test: HT1080_CD27 cells, imaging; also: test concentration or dose not given here
[5] = molecular target: T3, CD134 expressed on the cell surface of …; test: cell-based or functional assay
[6] = molecular target: T3, CD134 expressed on the cell surface of …; test: cell-based or functional assay; remark: listed apart in the source
[7] = molecular target: T4, CD134 protein (His-tagged, Sino …); test: ELISA, coated His-tagged CD134; also: test concentration or dose not given here
[8] = molecular target: T3, CD134 expressed on the cell surface of …; test: HT1080_OX40 cells, imaging; also: test concentration or dose not given here
For Functional assay Cross-linked by F(ab′)2 fragment IL-8 in this document: test concentration or dose not given here.
For Functional assay IL-8 in this document: test concentration or dose not given here.

Binder | EC 50 (IL-8 release, cross-linked) [1] [µg/mL] | Functional assay Cross-linked by F(ab′)2 fragment IL-8 [2] [abs. corr.] | Functional assay IL-8 [2] [abs. corr.] | ELISA [abs. corr.] [3] [abs. corr.] | Cellular binding assay [RFU] [4] [RFU] | Functional assay Cross-linked by F(ab′)2 fragment IL-8 [5] [abs. corr.] | Functional assay IL-8 [5] [abs. corr.] | EC 50 (IL-8 release, cross-linked) [6] [µg/mL] | ELISA [abs. corr.] [7] [abs. corr.] | Cellular binding assay [RFU] [8] [RFU]
P018.S.10.A.A03 (antibody, V domains shown, V regions on human Ig constant parts; also called AB27_163) VH: QSLEESGGRLVTPGTPLTLTCTVSGIDLSSYAMGWVRQAPGKGLEWIGTISTISNTYYASWANGRFTISKTSTTVDLKMTSLTASDTATYFCARGASNTINDYFNLWGQGTLVTVSS VL: DIVMTQTPASVSEPVGGTVTIKCQASQSVGNYLAWYQQKPGQPPKLLIYDASNLASGVSSRFKGSGFATEFILTISDLESTDAATYYCHSYVYSSGNVYNGFGGGTEVVVK | 0.513 | 2.06 | 1.02 | 2.81 | 198 | – | – | – | – | –
P018.S.04.A.G05 (antibody, V domains shown, V regions on human Ig constant parts; also called AB134_14) VH: QSVEESGGRLVTPGTPLTLTCTVSGFSLSTYYMSWVRQAPGKSLEWIGCIHGDDGSTWYASWVQGRFTISKASTTVDLQIASPTTEDTATYFCARGLPYWPNDGDFNLWGQGTLVTVSS VL: TQVLTQTPSPVSAAVGGTVSISCQSSQSVYNNNWLSWFQQKPGQPPKLLVYGASTLASGVPSRFKGSGSGTQFTLTISDLESDDAATYYCAGGYYTTSDNGFGGGTEVVVK | – | – | – | – | – | 2.41 | -0.022 | 0.669 | 2.87 | 451
P018.S.10.A.F04 (antibody, V domains shown, V regions on human Ig constant parts; also called AB27_180) VH: QSVEESGGRLVTPGTPLTLTCTASGFYLSSHYMSWVRQAPGKGLEWIGIIYATGIASYANWAKGRFTISKTSTTVSLKMTSPTTEDTATYFCARYDSQDYYGYGNLWGPGTLVTVSS VL: AYDMTQTPASVEVAVGGTVTIKCQASQNIYNNLAWYQQKPGQRPKLLIYRASTLASGVSSQFKGSGSGTEYTLTISGVESADAATYYCQQGYSVHDVYNTFGGGTEVVVK | 1.27 | 2.32 | 0.273 | 2.89 | 133 | – | – | – | – | –
P018.S.10.A.B03 (antibody, V domains shown, V regions on human Ig constant parts; also called AB27_168) VH: QSLEESGGRLVTPGTPLTLTCTASGFSLSSYDMGWVRQAPGKGLEWIGIISSSGSTYYASWAKGRFTISKTSSTTVDLKMTSLTTEDTATYFCARTSLDGNLWGQGTLVTVSS VL: AFEMTQTPSSVSEPVGGTVTIKCQASQSIYNYLSWYQQKPGQPPKLLIYDASALASGVPSRFKGSGSGTDFTLTISDLESADAATYYCQQDYSVSDVDNSFGGGTEVVVK | 1.94 | 2.07 | -0.032 | 2.24 | 19 | – | – | – | – | –
P018.S.04.A.F05 (antibody, V domains shown, V regions on human Ig constant parts; also called AB134_12) VH: QSVEESGGRLVTPGTPLTLTCTVSGIDLSSYTMGWVRQAPGKGLEYIGIIGTSGTTYYSSWAKGRFTISKTSTTVDLKITSPTTEDTATYFCARLGDDYGDFHFNLWGQGTLVTVSS VL: DLVMTQTPASVSEPVGGTVTIKCQASQNIGNYLAWYQQKPGQPPKLLIYAASNLASGVSSRFKGSGSGTEYTLTISDLESADAATYYCQCTYYDSTYFAFGGGTEVVVK | – | – | – | – | – | 2.4 | 0.181 | 0.225 | 2.44 | 368
P018.S.03.A.E03 (antibody, V domains shown, V regions on human Ig constant parts; also called AB134_4) VH: QSVEESGGRLVTPGTPLTLTCTVSGFSLSTYGMSWVRQAPGKGLEWIGIIDAGDSPYYASWVKGRFTISKTSTTVDLKITSLTTEDTATYFCARIAGSNHGPFSLWGPGTLVTVSS VL: DVVMTQTPASVSEPVGGTVTINCQASEFISNYLAWYQQKPGQPPKLLIYGASTLASGVPSRFSGSGSGTQFTLTISDLESDDAATYYCQCTAYGSGYVGFGGGTEVVVK | – | – | – | – | – | 2.54 | 0.314 | 0.529 | 2.72 | 419

More lines, now with the values ahead:

EC 50 (IL-8 release, cross-linked) [1] [µg/mL] | Functional assay Cross-linked by F(ab′)2 fragment IL-8 [2] [abs. corr.] | Functional assay IL-8 [2] [abs. corr.] | ELISA [abs. corr.] [3] [abs. corr.] | Cellular binding assay [RFU] [4] [RFU] | Functional assay Cross-linked by F(ab′)2 fragment IL-8 [5] [abs. corr.] | Functional assay IL-8 [5] [abs. corr.] | EC 50 (IL-8 release, cross-linked) [6] [µg/mL] | ELISA [abs. corr.] [7] [abs. corr.] | Cellular binding assay [RFU] [8] [RFU] | Binder
0.414 | 2.28 | 0.631 | 2.9 | 238 | – | – | – | – | – | P018.S.10.A.C02 (antibody, V domains shown, V regions on human Ig constant parts; also called AB27_171) VH: QSVEESGGRLVTPGTPLTLTCTVSGIDLSNYAMSWVRQTPGKGLEWIGAIGIGGNTYYASWAKGRFTISRTSTMVDLKVASPTPEDTATYFCARHAGAGVVNWLDLWGQGTLVTVSS VL: DVVMTQTPASVSEPVGGTVTIKCQASQSIGSNLAWYQQKPGQPPKLLIYAASDLASGVPSRFSGSGSGTEFTLTISGVQSDDAATFYCQTYGSGSFSSFNLFGGGTEVVVK
0.144 | 2.46 | 0.839 | 2.95 | 155 | – | – | – | – | – | P018.S.09.A.A02 (antibody, V domains shown, V regions on human Ig constant parts; also called AB27_143) VH: QSVEESGGRLVTPGTPLTLTCTASGFSLSNFYMSWVRQAPGKGLEWIGIISTGGSAYYASWAKGRFTSSKTSTTVDLQITSPTTEDTATYFCARGSGTDGAWLYYGIDLWGPGTLVTVSS VL: DVVMTQTPASVEAAVGGTVTIKCQASENIGHALAWYQQKPGQPPKLLIYRTSTLASGVPSRFSGSGSGTQFSLTISDLDSADAATYFCQINYGGGSGGYFAFGGGTEVVVK
0.387 | 2.25 | 2.19 | 3.09 | 113 | – | – | – | – | – | P018.S.09.A.A06 (antibody, V domains shown, V regions on human Ig constant parts; also called AB27_146) VH: QEQLKESGGGLVQPGESLTLTCTASGFSLSSYYMSWVRQAPGKGLEWIGMISTGGSAYYANWARGRFTISRTSTTVDLKVTSLTTEDTATYFCARGWRYEDLWGQGTLVTVSS VL: AQVLTQTPSPVSAAVGSTVTINCQSSQTVYNNNYLAWYQQKPGQPPKLLIYDASNLASGVSSRFSGSGSGTQFTLTISDLESDDAATYYCQGTYYDNAWYHTFGGGTEVVVK
0.376 | 2.21 | 0.189 | 2.31 | 11 | – | – | – | – | – | P018.S.05.A.F05 (as anti-CD27 antibody) (antibody, V domains shown, V regions on human Ig constant parts; also called AB27_92) VH: QSVEESGGRLVTPGTPLTLTCTVSGFSLSNYYMTWVRQAPGKGLEYIGIIGSGVSTYYANWAKGRFTISKASSTTVDLKMTSPTTEDTATYFCARDMYVGNWGDWGLWGQGTLVTVSS VL: AYDMTQTPASVEVAVGGTVTIKCQASQSISNNLNWYQQKPGQPPKLLIYSVSTLASGVPSRFKGSGSGTDYTLTISGVESVDAATYYCQQDYRIGDLDSAFGGGTEVVVK
– | – | – | – | – | 2.39 | 2.62 | 0.975 | 2.62 | 463 | P018.S.05.A.G05 (antibody, V domains shown, V regions on human Ig constant parts; also called AB134_18) VH: QSVEESGGRLVTPGTPLTLTCTVSGIDLSNHGMGWFRQGPGKGLEWIGIIYIDGGASYASWVNGRFTISKTSTTVDLKITSPTTEDTATYFCARGIPSDGDSSYYYFNLWGQGTLVTVAS VL: DVVMTQTPASVEAAVGGTVTIKCQASQSVYNKYLSWFQQKPGQPPKLLIYRASTLESGVSSRFKGSGSGTEFTLTISDLESADAATYYCQNNNGAGDNTDYTFGGGTEVVVK
– | – | – | – | – | 2.19 | 0.13 | 0.745 | 2.04 | 570 | P018.S.12.A.G05 (antibody, V domains shown, V regions on human Ig constant parts; also called AB134_87) VH: QSVEESGGRLVTPGTPLTLTCTVSGFSLSTYGMSWVRQAPGKGLEWIGIIDGGDSPYYASWAEGRFTISKTSTTVDLKITSPTTEDTATYFCARIAGSNHGPFDLWGPGTLVTVSS VL: DVVMTQTPASVSEPVGGTVTINCQASEFISNYLAWYQQKPGQPPKLLIYGASTLASGVPSRFKGSGSGTDFTLTISDLESADAATYYCQCTAYGSSYVGFGGGTEVVVK
